Experimental data reported in patent US7056679 (ANTYRA, dated 2006).

T1: DGI-2 polypeptide (UniProt Q15004 1-111, limits assumed)
T1 construct: Soluble recombinant protein coated at 500 ng/well; vector tag of pIVEX2.3-MCS not described for this construct; also called KIAA0101
T1 sequence (looked up): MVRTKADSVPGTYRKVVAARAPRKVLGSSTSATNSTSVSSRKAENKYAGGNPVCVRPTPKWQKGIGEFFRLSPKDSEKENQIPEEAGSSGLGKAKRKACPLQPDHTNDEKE

T2: DGI-2 polypeptide (UniProt Q15004 1-111, limits assumed)
T2 construct: Vector-derived residues or tag of pIVEX2.3 are not described for this construct; also called KIAA0101
T2 sequence (looked up): T1 sequence (looked up)

B1: DGI-2-40F-4-E62 (peptide)
peptide: TCWHRGLNVVRYSVNFGVRDARLTTQGMAWFPPGCGQGCVAAAGAPVPYPDPLEPRP
B2: DGI-2-40F-4-F122 (peptide)
peptide: RSQVRVVSRERSTPVLHRIECLLFSGWCVTSGSDEGVVWGAAAGAPVPYPDPLEPRP
B3: DGI-2-40F-3-C424 (peptide)
peptide: TVKFQGVVQERSRIAGFRYCGDHAVSWGLAGCPALRDKLQAAAGAPVPYPDPLEPRP
B4: DGI-2-40F-3-C8 (peptide)
peptide: YGTAGLFLRRACTMSDPGDPLGRRGYTGWGVLWDEWVTGSAAAGAPVPYPDPLEPRP
B5: DGI-2-20F-3-C1 (peptide)
peptide: GSVLERGCLEFSGFCFSLGHAAAGAPVPYPDPLEPRP
notes: not shown: phage gene III coat protein (pCANTAB5E)
B6: DGI-2-20R-4-E2 (peptide)
peptide: TANGHRYGGCGLWCKWMSGMAAAGAPVPYPDPLEPRP
notes: as for B5
B7: DGI-2-40F-3-D72 (peptide)
peptide: MGSLGPFGNINSLASGIGSVRNRPLLPLHGSPAAAGAPVPYPDPLEPRP
notes: as for B5
B8: DGI-2-20R-4-E82 (peptide)
peptide: DAGIGWVGSMWFPPGCIGACAAAGAPVPYPDPLEPRP
notes: as for B5
B9: DGI-2-20F-4-E3 (peptide)
peptide: RNWLDKDCVWMGDCGARAGEAAAGAPVPYPDPLEPRP
notes: as for B5
B10: DGI-2-40F-4-F6 (peptide)
peptide: SYRNFAMQSSLQVRRGSVVEDGTCWWEGVRCYSGAAAGAPVPYPDPLEPRP
notes: as for B5
B11: DGL-2-20R-3-B6 (peptide)
peptide: TSCQVMFLAGQHLLSRVPRLAAAGAPVPYPDPLEPRP
notes: as for B5
B12: DGI-2-20C-4-H316 (peptide)
peptide: RWSICRGLQYSIPGCAVEDLSDVMAAAAGAPVPYPDPLEPRP
notes: as for B5
B13: DGI-2-20R-4-H12 (peptide)
peptide: MSTLQGPGHLFQMLRRASLGAAAGAPVPYPDPLEPRP
notes: as for B5
B14: DGI-2-20R-3-B7 (peptide)
peptide: SWRLWVSGELQGDRRKGLRGAAAGAPVPYPDPLEPRP
notes: as for B5
B15: DGI-2-20R-3-A9 (peptide)
peptide: LQIVRPAGWKMPGQVGYYIGAAAGAPVPYPDPLEPRP
notes: as for B5
B16: DGI-2-40F-3-D11 (peptide)
peptide: LHFGSVMGWRPPGSLWSRPFGQVHPRSWSGSAAAGAPVPYPDPLEPRP
notes: as for B5
B17: DGI-2-20F-3-C12 (peptide)
peptide: LTPYSLARSWLSGRPSTGATAAAGAPVPYPDPLEPRP
notes: as for B5
B18: DGI-2-20R-4-H7 (peptide)
peptide: LSHPMSPLRAASQMALTQGVAAAGAPVPYPDPLEPRP
notes: as for B5

target: T1, DGI-2 polypeptide; experiment: phage ELISA
Outline: (§1)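 Phage from individual clones were bound for 2 h at RT to wells coated with 500 ng DGI-2, LDH (non-specific), anti-E-tag antibody (positive control) or milk (negative control). Bound phage were detected with HRP-anti-M13 and ABTS at A405; positive clones gave ≥2-fold signal over background.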

Binder | DGI-2 (OD) | DGI-2/LDH
VLQRSLWKDWVDGVMHGGGSRGVAAAGAPVPYPDPLEPRP [DGI-2-20R-3-A7] | 4.8 OD | 5.1 ratio
DGKHLTKWSGRGWWSAWVGGAAAGAPVPYPDPLEPRP [DGI-2-20R-3-B12] | 5.7 OD | 5.5 ratio
YTPASILTGFQRGYEGAGNGAAAGAPVPYPDPLEPRP [DGI-2-20R-4-G7] | 4.7 OD | 3.9 ratio
B1 | 4.6 OD | 4.5 ratio
RERWGTAWNLWTEGVVDVRPAAAGAPVPYPDPLEPRP [DGI-2-20F-3-B5] | 6.1 OD | 6.6 ratio
VVRQGCMAFSGLCSGVTESEAAAGAPVPYPDPLEPRP [DGI-2-20R-3-C8] | 5.6 OD | 5.3 ratio
B2 | 4.7 OD | 5.7 ratio
B3 | 5.5 OD | 5.2 ratio
MFQDVACDLWHSVRCLRRDVAAAGAPVPYPDPLEPRP [DGI-2-20R-3-B3] | 4.9 OD | 4.8 ratio
REFFNQASRGAWGYMFREWVEGAAAGAPVPYPDPLEPRP [DGI-2-40F-3-A1] | 4.5 OD | 5.2 ratio
VHSQGRMWAIPGLRGGTGASAAAGAPVPYPDPLEPRP [DGI-2-20R-3-D7] | 5.2 OD | 5.3 ratio
GWGCSVPGILCVGGHRQGGGAAAGAPVPYPDPLEPRP [DGI-2-20R-3-B11] | 5.9 OD | 5.7 ratio
MGVVLECEGGWSIPGQTCYFAAAGAPVPYPDPLEPRP [DGI-2-20R-3-C7] | 5.1 OD | 5.1 ratio
MSSTAWTDRILQRGIGLGPVAAAGAPVPYPDPLEPRP [DGI-2-20R-4-F1212] | 4 OD | 3.3 ratio
LPQSRWLSEAWASWVDGVVDAAAGAPVPYPDPLEPRP [DGI-2-20F-4-F9] | 5.6 OD | 5.9 ratio
GGGRESWGGGWFMGWGSGAGAAAGAPVPYPDPLEPRP [DGI-2-20R-3-A6] | 5.8 OD | 5.9 ratio
B4 | 5.7 OD | 6 ratio
SRPGWCSRGTAWGFPGCSSSAAAGAPVPYPDPLEPRP [DGI-2-20R-3-C4] | 4.5 OD | 4.2 ratio
RPVVCLAGLTLAQFGWVFPGWRGWSAAAGAPVPYPDPLEPRP [DGI-2-20C-3-C1039] | 4.7 OD | 4.7 ratio

target: T3, lactate dehydrogenase (LDH); experiment: phage ELISA
T3 construct: Coated at 500 ng/well as non-specific target; also called LDH polypeptide
Outline: as §1

Binder | LDH (OD)
VLQRSLWKDWVDGVMHGGGSRGVAAAGAPVPYPDPLEPRP [DGI-2-20R-3-A7] | 0.9 OD
DGKHLTKWSGRGWWSAWVGGAAAGAPVPYPDPLEPRP [DGI-2-20R-3-B12] | 1 OD
YTPASILTGFQRGYEGAGNGAAAGAPVPYPDPLEPRP [DGI-2-20R-4-G7] | 1.2 OD
B1 | 1 OD
RERWGTAWNLWTEGVVDVRPAAAGAPVPYPDPLEPRP [DGI-2-20F-3-B5] | 0.9 OD
VVRQGCMAFSGLCSGVTESEAAAGAPVPYPDPLEPRP [DGI-2-20R-3-C8] | 1.1 OD
B2 | 0.8 OD
B3 | 1.1 OD
MFQDVACDLWHSVRCLRRDVAAAGAPVPYPDPLEPRP [DGI-2-20R-3-B3] | 1 OD
REFFNQASRGAWGYMFREWVEGAAAGAPVPYPDPLEPRP [DGI-2-40F-3-A1] | 0.9 OD
VHSQGRMWAIPGLRGGTGASAAAGAPVPYPDPLEPRP [DGI-2-20R-3-D7] | 1 OD
GWGCSVPGILCVGGHRQGGGAAAGAPVPYPDPLEPRP [DGI-2-20R-3-B11] | 1 OD
MGVVLECEGGWSIPGQTCYFAAAGAPVPYPDPLEPRP [DGI-2-20R-3-C7] | 1 OD
MSSTAWTDRILQRGIGLGPVAAAGAPVPYPDPLEPRP [DGI-2-20R-4-F1212] | 1.2 OD
LPQSRWLSEAWASWVDGVVDAAAGAPVPYPDPLEPRP [DGI-2-20F-4-F9] | 1 OD
GGGRESWGGGWFMGWGSGAGAAAGAPVPYPDPLEPRP [DGI-2-20R-3-A6] | 1 OD
B4 | 0.9 OD
SRPGWCSRGTAWGFPGCSSSAAAGAPVPYPDPLEPRP [DGI-2-20R-3-C4] | 1.1 OD
RPVVCLAGLTLAQFGWVFPGWRGWSAAAGAPVPYPDPLEPRP [DGI-2-20C-3-C1039] | 1 OD

target: T4, antibody raised against ETAG; experiment: phage ELISA
T4 construct: Coated at 500 ng/well; also called E-tag antibody
Outline: as §1

Binder | ETAG (OD)
VLQRSLWKDWVDGVMHGGGSRGVAAAGAPVPYPDPLEPRP [DGI-2-20R-3-A7] | 13.9 OD
DGKHLTKWSGRGWWSAWVGGAAAGAPVPYPDPLEPRP [DGI-2-20R-3-B12] | 15.5 OD
YTPASILTGFQRGYEGAGNGAAAGAPVPYPDPLEPRP [DGI-2-20R-4-G7] | 11.6 OD
B1 | 14.8 OD
RERWGTAWNLWTEGVVDVRPAAAGAPVPYPDPLEPRP [DGI-2-20F-3-B5] | 16.4 OD
VVRQGCMAFSGLCSGVTESEAAAGAPVPYPDPLEPRP [DGI-2-20R-3-C8] | 21.1 OD
B2 | 8.1 OD
B3 | 14.8 OD
MFQDVACDLWHSVRCLRRDVAAAGAPVPYPDPLEPRP [DGI-2-20R-3-B3] | 16.1 OD
REFFNQASRGAWGYMFREWVEGAAAGAPVPYPDPLEPRP [DGI-2-40F-3-A1] | 9.9 OD
VHSQGRMWAIPGLRGGTGASAAAGAPVPYPDPLEPRP [DGI-2-20R-3-D7] | 18.7 OD
GWGCSVPGILCVGGHRQGGGAAAGAPVPYPDPLEPRP [DGI-2-20R-3-B11] | 16.9 OD
MGVVLECEGGWSIPGQTCYFAAAGAPVPYPDPLEPRP [DGI-2-20R-3-C7] | 18 OD
MSSTAWTDRILQRGIGLGPVAAAGAPVPYPDPLEPRP [DGI-2-20R-4-F1212] | 9.8 OD
LPQSRWLSEAWASWVDGVVDAAAGAPVPYPDPLEPRP [DGI-2-20F-4-F9] | 19.6 OD
GGGRESWGGGWFMGWGSGAGAAAGAPVPYPDPLEPRP [DGI-2-20R-3-A6] | 17.7 OD
B4 | 13.6 OD
SRPGWCSRGTAWGFPGCSSSAAAGAPVPYPDPLEPRP [DGI-2-20R-3-C4] | 19.1 OD
RPVVCLAGLTLAQFGWVFPGWRGWSAAAGAPVPYPDPLEPRP [DGI-2-20C-3-C1039] | 11.8 OD

target: T2, DGI-2 polypeptide; experiment: phage ELISA, 405 nm; DGI-2 coated
Protocol: (§2) For analysis of individual target binders, colonies were picked and phage prepared as described above using helper phage, M13KO7. Ninety-six-well microtiter plates were coated with 500 ng/well of specific target protein, 500 ng/well lactate dehydrogenase (LDH) irrelevant or non-specific target, 500 ng/well of positive control antibody raised against ETAG, and negative control of non-fat milk powder-PBS 2% at 4° C. overnight. Plates were then blocked with 350 microliters/well PBS containing 2% non-fat milk for 1 hr at room temperature. One hundred microliters per well of phage from isolated clones were added and plates were incubated at room temperature for 2 hr after centrifuging samples for 20 minutes at 3500 rpm at 4° C. The phage solution was then removed, and the wells were washed three times with PBS at room temperature. Antibody raised against M13 conjugated to horseradish peroxidase (Pharmacia) was diluted 1:3000 in PBS-Tween and added to each well (100 µl/well). Incubation was for 1 hr at room temperature, followed by washing with PBS-(0.5%) Tween 3 times as described. Color was developed by addition of ABTS solution (100 µl/well; Boehringer, Indianapolis, Ind.). Plates were analyzed at 405 nm. A clone was considered "positive" if the $A405$ of the well was $\geq$2-fold over background.

Binder | DGI-2 (OD)
B5 | 3.4 OD
B6 | 2.7 OD
B7 | 3.1 OD
B8 | 3.9 OD
B9 | 3.8 OD
B10 | 3.2 OD
B11 | 2.8 OD
B12 | 3.8 OD
B13 | 3.7 OD
B14 | 3.1 OD
B15 | 3.4 OD
B16 | 3.8 OD
B17 | 3.2 OD
B18 | 3.1 OD

target: T5, antibody raised against ETAG; experiment: phage ELISA, 405 nm; anti-E-tag antibody coated
T5 construct: read-out of display; also called E-tag antibody; E tag antibody
Protocol: as §2

Binder | ETAG (OD)
B5 | 14 OD
B6 | 18.2 OD
B7 | 14 OD
B8 | 19.6 OD
B9 | 16.9 OD
B10 | 13.5 OD
B11 | 11.7 OD
B12 | 7.2 OD
B13 | 10.9 OD
B14 | 11.7 OD
B15 | 14.3 OD
B16 | 10.5 OD
B17 | 15.1 OD
B18 | 14.1 OD

target: T2, DGI-2 polypeptide; experiment: phage ELISA, 405 nm; DGI-2 signal over LDH signal
Protocol: as §2

Binder | DGI-2/LDH (OD)
B5 | 3.4 ratio
B6 | 2.5 ratio
B7 | 2.8 ratio
B8 | 3.7 ratio
B9 | 4.1 ratio
B10 | 3.2 ratio
B11 | 2.7 ratio
B12 | 3.9 ratio
B13 | 2.8 ratio
B14 | 3 ratio
B15 | 3.4 ratio
B16 | 2.9 ratio
B17 | 3.1 ratio
B18 | 2.6 ratio
